Measured values from patent US12630600B2 (MEDIMMUNE LIMITED, priority 2022, dated 2026).
Starred links: 1 amine or outer side, 2 acyl side, 3 side chain; linkers in the order of their positions; H or OH if unused. Non-standard residues stand in square brackets, D forms with d. Groups on a side chain read outwards from the residue. No end group written: not given here. *: point of attachment. C20 diacid = O=C(O)CCCCCCCCCCCCCCCCCCC(=O)*; C18 diacid = O=C(O)CCCCCCCCCCCCCCCCC(=O)*; γGlu = O=C(O)[C@H](CCC(=O)[*:2])N[*:1]; αMeF = C[C@](N)(Cc1ccccc1)C(=O)O; AEEA = NCCOCCOCC(=O)O; Aib = CC(C)(N)C(=O)O

B1: Peptide 484 (peptide)
peptide: H[Aib]QGTFTSDVSK[αMeF]LDTK([AEEA-AEEA-γGlu-C20 diacid])RAQDFVQWLL[Aib]E-OH
modifications: N-terminus assumed
SMILES: CC(C)C[C@H](NC(=O)[C@H](Cc1c[nH]c2ccccc12)NC(=O)[C@H](CCC(N)=O)NC(=O)[C@@H](NC(=O)[C@H](Cc1ccccc1)NC(=O)[C@H](CC(=O)O)NC(=O)[C@H](CCC(N)=O)NC(=O)[C@H](C)NC(=O)[C@H](CCCNC(=N)N)NC(=O)[C@H](CCCCNC(=O)COCCOCCNC(=O)COCCOCCNC(=O)CC[C@H](NC(=O)CCCCCCCCCCCCCCCCCCC(=O)O)C(=O)O)NC(=O)[C@@H](NC(=O)[C@H](CC(=O)O)NC(=O)[C@H](CC(C)C)NC(=O)[C@](C)(Cc1ccccc1)NC(=O)[C@H](CCCCN)NC(=O)[C@H](CO)NC(=O)[C@@H](NC(=O)[C@H](CC(=O)O)NC(=O)[C@H](CO)NC(=O)[C@@H](NC(=O)[C@H](Cc1ccccc1)NC(=O)[C@@H](NC(=O)CNC(=O)[C@H](CCC(N)=O)NC(=O)C(C)(C)NC(=O)[C@@H](N)Cc1c[nH]cn1)[C@@H](C)O)[C@@H](C)O)C(C)C)[C@@H](C)O)C(C)C)C(=O)N[C@@H](CC(C)C)C(=O)NC(C)(C)C(=O)N[C@@H](CCC(=O)O)C(=O)O
B2: Peptide 481 (peptide)
peptide: H[Aib]QGTFTSDVSK[αMeF]LDTK([AEEA-AEEA-γGlu-C20 diacid])RARDFVQWLLE[Aib]K-NH2
modifications: N-terminus assumed
SMILES: CC(C)C[C@H](NC(=O)[C@H](Cc1c[nH]c2ccccc12)NC(=O)[C@H](CCC(N)=O)NC(=O)[C@@H](NC(=O)[C@H](Cc1ccccc1)NC(=O)[C@H](CC(=O)O)NC(=O)[C@H](CCCNC(=N)N)NC(=O)[C@H](C)NC(=O)[C@H](CCCNC(=N)N)NC(=O)[C@H](CCCCNC(=O)COCCOCCNC(=O)COCCOCCNC(=O)CC[C@H](NC(=O)CCCCCCCCCCCCCCCCCCC(=O)O)C(=O)O)NC(=O)[C@@H](NC(=O)[C@H](CC(=O)O)NC(=O)[C@H](CC(C)C)NC(=O)[C@](C)(Cc1ccccc1)NC(=O)[C@H](CCCCN)NC(=O)[C@H](CO)NC(=O)[C@@H](NC(=O)[C@H](CC(=O)O)NC(=O)[C@H](CO)NC(=O)[C@@H](NC(=O)[C@H](Cc1ccccc1)NC(=O)[C@@H](NC(=O)CNC(=O)[C@H](CCC(N)=O)NC(=O)C(C)(C)NC(=O)[C@@H](N)Cc1c[nH]cn1)[C@@H](C)O)[C@@H](C)O)C(C)C)[C@@H](C)O)C(C)C)C(=O)N[C@@H](CC(C)C)C(=O)N[C@@H](CCC(=O)O)C(=O)NC(C)(C)C(=O)N[C@@H](CCCCN)C(N)=O
B3: Peptide 482 (peptide)
peptide: H[Aib]QGTFTSDVSK[αMeF]LESK([AEEA-AEEA-γGlu-C18 diacid])RAQDFVQWLL[Aib]E-OH
modifications: N-terminus assumed
SMILES: CC(C)C[C@H](NC(=O)[C@H](Cc1c[nH]c2ccccc12)NC(=O)[C@H](CCC(N)=O)NC(=O)[C@@H](NC(=O)[C@H](Cc1ccccc1)NC(=O)[C@H](CC(=O)O)NC(=O)[C@H](CCC(N)=O)NC(=O)[C@H](C)NC(=O)[C@H](CCCNC(=N)N)NC(=O)[C@H](CCCCNC(=O)COCCOCCNC(=O)COCCOCCNC(=O)CC[C@H](NC(=O)CCCCCCCCCCCCCCCCC(=O)O)C(=O)O)NC(=O)[C@H](CO)NC(=O)[C@H](CCC(=O)O)NC(=O)[C@H](CC(C)C)NC(=O)[C@](C)(Cc1ccccc1)NC(=O)[C@H](CCCCN)NC(=O)[C@H](CO)NC(=O)[C@@H](NC(=O)[C@H](CC(=O)O)NC(=O)[C@H](CO)NC(=O)[C@@H](NC(=O)[C@H](Cc1ccccc1)NC(=O)[C@@H](NC(=O)CNC(=O)[C@H](CCC(N)=O)NC(=O)C(C)(C)NC(=O)[C@@H](N)Cc1c[nH]cn1)[C@@H](C)O)[C@@H](C)O)C(C)C)C(C)C)C(=O)N[C@@H](CC(C)C)C(=O)NC(C)(C)C(=O)N[C@@H](CCC(=O)O)C(=O)O
B4: Peptide 486 (peptide)
peptide: H[Aib]QGTFTSDVSK[αMeF]LDLK([AEEA-AEEA-γGlu-C20 diacid])RAQDFVRWLL[Aib]E-OH
modifications: N-terminus assumed
SMILES: CC(C)C[C@H](NC(=O)[C@H](CC(=O)O)NC(=O)[C@H](CC(C)C)NC(=O)[C@](C)(Cc1ccccc1)NC(=O)[C@H](CCCCN)NC(=O)[C@H](CO)NC(=O)[C@@H](NC(=O)[C@H](CC(=O)O)NC(=O)[C@H](CO)NC(=O)[C@@H](NC(=O)[C@H](Cc1ccccc1)NC(=O)[C@@H](NC(=O)CNC(=O)[C@H](CCC(N)=O)NC(=O)C(C)(C)NC(=O)[C@@H](N)Cc1c[nH]cn1)[C@@H](C)O)[C@@H](C)O)C(C)C)C(=O)N[C@@H](CCCCNC(=O)COCCOCCNC(=O)COCCOCCNC(=O)CC[C@H](NC(=O)CCCCCCCCCCCCCCCCCCC(=O)O)C(=O)O)C(=O)N[C@@H](CCCNC(=N)N)C(=O)N[C@@H](C)C(=O)N[C@@H](CCC(N)=O)C(=O)N[C@@H](CC(=O)O)C(=O)N[C@@H](Cc1ccccc1)C(=O)N[C@H](C(=O)N[C@@H](CCCNC(=N)N)C(=O)N[C@@H](Cc1c[nH]c2ccccc12)C(=O)N[C@@H](CC(C)C)C(=O)N[C@@H](CC(C)C)C(=O)NC(C)(C)C(=O)N[C@@H](CCC(=O)O)C(=O)O)C(C)C
B5: Peptide 479 (peptide)
peptide: H[Aib]QGTFTSDVSK[αMeF]LDTK([AEEA-AEEA-γGlu-C20 diacid])RAQDFVRWLLE[Aib]K-NH2
modifications: N-terminus assumed
SMILES: CC(C)C[C@H](NC(=O)[C@H](Cc1c[nH]c2ccccc12)NC(=O)[C@H](CCCNC(=N)N)NC(=O)[C@@H](NC(=O)[C@H](Cc1ccccc1)NC(=O)[C@H](CC(=O)O)NC(=O)[C@H](CCC(N)=O)NC(=O)[C@H](C)NC(=O)[C@H](CCCNC(=N)N)NC(=O)[C@H](CCCCNC(=O)COCCOCCNC(=O)COCCOCCNC(=O)CC[C@H](NC(=O)CCCCCCCCCCCCCCCCCCC(=O)O)C(=O)O)NC(=O)[C@@H](NC(=O)[C@H](CC(=O)O)NC(=O)[C@H](CC(C)C)NC(=O)[C@](C)(Cc1ccccc1)NC(=O)[C@H](CCCCN)NC(=O)[C@H](CO)NC(=O)[C@@H](NC(=O)[C@H](CC(=O)O)NC(=O)[C@H](CO)NC(=O)[C@@H](NC(=O)[C@H](Cc1ccccc1)NC(=O)[C@@H](NC(=O)CNC(=O)[C@H](CCC(N)=O)NC(=O)C(C)(C)NC(=O)[C@@H](N)Cc1c[nH]cn1)[C@@H](C)O)[C@@H](C)O)C(C)C)[C@@H](C)O)C(C)C)C(=O)N[C@@H](CC(C)C)C(=O)N[C@@H](CCC(=O)O)C(=O)NC(C)(C)C(=O)N[C@@H](CCCCN)C(N)=O
B6: Peptide 485 (peptide)
peptide: H[Aib]QGTFTSDVSK[αMeF]LDTK([AEEA-AEEA-γGlu-C20 diacid])RAQDFVQWLL[Aib]E-NH2
modifications: N-terminus assumed
SMILES: CC(C)C[C@H](NC(=O)[C@H](Cc1c[nH]c2ccccc12)NC(=O)[C@H](CCC(N)=O)NC(=O)[C@@H](NC(=O)[C@H](Cc1ccccc1)NC(=O)[C@H](CC(=O)O)NC(=O)[C@H](CCC(N)=O)NC(=O)[C@H](C)NC(=O)[C@H](CCCNC(=N)N)NC(=O)[C@H](CCCCNC(=O)COCCOCCNC(=O)COCCOCCNC(=O)CC[C@H](NC(=O)CCCCCCCCCCCCCCCCCCC(=O)O)C(=O)O)NC(=O)[C@@H](NC(=O)[C@H](CC(=O)O)NC(=O)[C@H](CC(C)C)NC(=O)[C@](C)(Cc1ccccc1)NC(=O)[C@H](CCCCN)NC(=O)[C@H](CO)NC(=O)[C@@H](NC(=O)[C@H](CC(=O)O)NC(=O)[C@H](CO)NC(=O)[C@@H](NC(=O)[C@H](Cc1ccccc1)NC(=O)[C@@H](NC(=O)CNC(=O)[C@H](CCC(N)=O)NC(=O)C(C)(C)NC(=O)[C@@H](N)Cc1c[nH]cn1)[C@@H](C)O)[C@@H](C)O)C(C)C)[C@@H](C)O)C(C)C)C(=O)N[C@@H](CC(C)C)C(=O)NC(C)(C)C(=O)N[C@@H](CCC(=O)O)C(N)=O
B7: Peptide 478 (peptide)
peptide: H[Aib]QGTFTSDVSK[αMeF]LDTK([AEEA-AEEA-γGlu-C18 diacid])RAQDFVRWLLE[Aib]K-NH2
modifications: N-terminus assumed
SMILES: CC(C)C[C@H](NC(=O)[C@H](Cc1c[nH]c2ccccc12)NC(=O)[C@H](CCCNC(=N)N)NC(=O)[C@@H](NC(=O)[C@H](Cc1ccccc1)NC(=O)[C@H](CC(=O)O)NC(=O)[C@H](CCC(N)=O)NC(=O)[C@H](C)NC(=O)[C@H](CCCNC(=N)N)NC(=O)[C@H](CCCCNC(=O)COCCOCCNC(=O)COCCOCCNC(=O)CC[C@H](NC(=O)CCCCCCCCCCCCCCCCC(=O)O)C(=O)O)NC(=O)[C@@H](NC(=O)[C@H](CC(=O)O)NC(=O)[C@H](CC(C)C)NC(=O)[C@](C)(Cc1ccccc1)NC(=O)[C@H](CCCCN)NC(=O)[C@H](CO)NC(=O)[C@@H](NC(=O)[C@H](CC(=O)O)NC(=O)[C@H](CO)NC(=O)[C@@H](NC(=O)[C@H](Cc1ccccc1)NC(=O)[C@@H](NC(=O)CNC(=O)[C@H](CCC(N)=O)NC(=O)C(C)(C)NC(=O)[C@@H](N)Cc1c[nH]cn1)[C@@H](C)O)[C@@H](C)O)C(C)C)[C@@H](C)O)C(C)C)C(=O)N[C@@H](CC(C)C)C(=O)N[C@@H](CCC(=O)O)C(=O)NC(C)(C)C(=O)N[C@@H](CCCCN)C(N)=O

target: human glucagon receptor (human, UniProt P47871); test: cell-based or functional assay

cAMP production EC50 [pM]	Binder
169	B1
350	B2
691	B3
166	B4
207	B5
169	H[Aib]QGTFTSDVSK[αMeF]LDTK([AEEA-AEEA-γGlu-C18 diacid])RAQDFVQWLL[Aib]E-OH [Peptide 483]
90.4	B6
190	B7

target: human GLP-1 receptor (human, UniProt P43220); test: cell-based or functional assay

cAMP production EC50 [pM]	Binder
339	B1
52.2	B2
190	B3
420	B4
34.2	B5
178	H[Aib]QGTFTSDVSK[αMeF]LDTK([AEEA-AEEA-γGlu-C18 diacid])RAQDFVQWLL[Aib]E-OH [Peptide 483]
219	B6
9.18	B7
